T1: human interleukin-23 receptor (IL23R) (human, UniProt Q5VWK5 24-355, limits assumed)
T1 construct: also called human IL23R
T1 sequence (looked up): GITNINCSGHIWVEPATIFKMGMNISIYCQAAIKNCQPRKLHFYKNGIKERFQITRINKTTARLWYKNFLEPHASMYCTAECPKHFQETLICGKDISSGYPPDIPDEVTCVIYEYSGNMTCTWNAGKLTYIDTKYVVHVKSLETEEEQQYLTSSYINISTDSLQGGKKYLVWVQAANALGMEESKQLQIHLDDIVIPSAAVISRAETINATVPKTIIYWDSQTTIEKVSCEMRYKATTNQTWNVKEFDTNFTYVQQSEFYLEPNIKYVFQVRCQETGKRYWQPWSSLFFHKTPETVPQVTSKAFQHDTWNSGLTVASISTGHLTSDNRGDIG


Key:
[1] = molecular target: T1, human interleukin-23 receptor (IL23R); test: SPR, scFv (summary table)
How it was run: (§1)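 Humanized rabbit variable domains were made as single-chain variable fragments (scFv) on consensus germline framework pairs, with or without a λ-cap (Vκ framework IV replaced by a Vλ germline sequence). They were expressed in E. coli as inclusion bodies, solubilized and refolded in a generic refolding buffer. Affinity for human IL23R was measured by surface plasmon resonance, giving rate constants and dissociation constant, or the λ-capped over uncapped dissociation-constant ratio.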

[2] = molecular target: T1, human interleukin-23 receptor (IL23R); test: SPR, scFv
How it was run: as §1

Binder | Kd [1] [nM] | Kd [2] [nM] | koff [2] [s⁻¹] | kon [2] [M⁻¹ s⁻¹]
Vκ1/VH4 consensus (uncapped), human IL23R specific scFv (scFv, scFv VL-linker-VH, made in E. coli; Vκ framework IV (uncapped, full consensus); also called Vκ1VH4 uncapped) scFv: DIQMTQSPSSLSASVGDRVTITCQASENIYSFLAWYQQKPGKAPKLLIYSASKLAAGVPSRFSGSGSGTDFTLTISSLQPEDFATYYCQQTNRYSNPDIYNVFGQGTKVEIKRGGGGSGGGGSGGGGSGGGGSQVQLQESGPGLVKPSETLSLTCTVSGIDFNSNYYMCWIRQPPGKGLEWIGCIYVGSHVNTYYANWAKGRVTISVDTSKNQFSLKLSSVTAADTAVYYCATSGSSVLYFKFWGQGTLVTVSS | 0.0991 | 0.0991 | 0.000176 | 1.78e+06
Vκ1/VH3 consensus (uncapped), human IL23R specific scFv (scFv, scFv VL-linker-VH, made in E. coli; Vκ framework IV (uncapped, full consensus); also called Vκ1VH3 uncapped) scFv: DIQMTQSPSSLSASVGDRVTITCQASENIYSFLAWYQQKPGKAPKLLIYSASKLAAGVPSRFSGSGSGTDFTLTISSLQPEDFATYYCQQTNRYSNPDIYNVFGQGTKVEIKRGGGGSGGGGSGGGGSGGGGSEVQLVESGGGLVQPGGSLRLSCAASGIDFNSNYYMCWVRQAPGKGLEWVSCIYVGSHVNTYYANWAKGRFTISRDNSKNTLYLQMNSLRAEDTAVYYCATSGSSVLYFKFWGQGTLVTVSS | 0.0347 | 0.0347 | 5.28e-05 | 1.52e+06
Vκ1/VH2 consensus (uncapped), human IL23R specific scFv (scFv, scFv VL-linker-VH, made in E. coli; Vκ framework IV (uncapped, full consensus); also called Vκ1VH2 uncapped) scFv: DIQMTQSPSSLSASVGDRVTITCQASENIYSFLAWYQQKPGKAPKLLIYSASKLAAGVPSRFSGSGSGTDFTLTISSLQPEDFATYYCQQTNRYSNPDIYNVFGQGTKVEIKRGGGGSGGGGSGGGGSGGGGSQVQLKESGPALVKPTQTLTLTCTFSGIDFNSNYYMCWIRQPPGKALEWLACIYVGSHVNTYYANWAKGRLTISKDTSKNQVVLTMTNMDPVDTATYYCATSGSSVLYFKFWGQGTLVTVSS | 0.211 | 0.211 | 0.000333 | 1.58e+06
Vκ1/VH1A consensus (uncapped), human IL23R specific scFv (scFv, scFv VL-linker-VH, made in E. coli; Vκ framework IV (uncapped, full consensus); also called Vκ1VH1A uncapped) scFv: DIQMTQSPSSLSASVGDRVTITCQASENIYSFLAWYQQKPGKAPKLLIYSASKLAAGVPSRFSGSGSGTDFTLTISSLQPEDFATYYCQQTNRYSNPDIYNVFGQGTKVEIKRGGGGSGGGGSGGGGSGGGGSQVQLVQSGAEVKKPGSSVKVSCKASGIDFNSNYYMCWVRQAPGQGLEWMGCIYVGSHVNTYYANWAKGRVTITADESTSTAYMELSSLRSEDTAVYYCATSGSSVLYFKFWGQGTLVTVSS | 0.02 | 0.02 | 0.000128 | 6.42e+06
Vκ1/VH1B consensus (uncapped), human IL23R specific scFv (scFv, scFv VL-linker-VH, made in E. coli; Vκ framework IV (uncapped, full consensus); also called Vκ1VH1B uncapped) scFv: DIQMTQSPSSLSASVGDRVTITCQASENIYSFLAWYQQKPGKAPKLLIYSASKLAAGVPSRFSGSGSGTDFTLTISSLQPEDFATYYCQQTNRYSNPDIYNVFGQGTKVEIKRGGGGSGGGGSGGGGSGGGGSQVQLVQSGAEVKKPGASVKVSCKASGIDFNSNYYMCWVRQAPGQGLEWMGCIYVGSHVNTYYANWAKGRVTMTRDTSISTAYMELSSLRSEDTAVYYCATSGSSVLYFKFWGQGTLVTVSS | 0.168 | 0.168 | 0.000413 | 2.45e+06

Next, values leading:

Kd [1] [nM] | Kd [2] [nM] | koff [2] [s⁻¹] | kon [2] [M⁻¹ s⁻¹] | Binder
0.525 | 0.525 | 0.000904 | 1.72e+06 | Vκ3/VH5 consensus (uncapped), human IL23R specific scFv (scFv, scFv VL-linker-VH, made in E. coli; Vκ framework IV (uncapped, full consensus); also called Vκ3VH5 uncapped) scFv: DIVLTQSPATLSLSPGERATLSCQASENIYSFLAWYQQKPGQAPRLLIYSASKLAAGVPARFSGSGSGTDFTLTISSLEPEDFAVYYCQQTNRYSNPDIYNVFGQGTKVEIKRGGGGSGGGGSGGGGSGGGGSEVQLVQSGAEVKKPGESLKISCKGSGIDFNSNYYMCWVRQMPGKGLEWMGCIYVGSHVNTYYANWAKGQVTISADKSISTAYLQWSSLKASDTAMYYCATSGSSVLYFKFWGQGTLVTVSS
0.139 | 0.139 | 0.000263 | 1.89e+06 | Vκ3/VH4 consensus (uncapped), human IL23R specific scFv (scFv, scFv VL-linker-VH, made in E. coli; Vκ framework IV (uncapped, full consensus); also called Vκ3VH4 uncapped) scFv: DIVLTQSPATLSLSPGERATLSCQASENIYSFLAWYQQKPGQAPRLLIYSASKLAAGVPARFSGSGSGTDFTLTISSLEPEDFAVYYCQQTNRYSNPDIYNVFGQGTKVEIKRGGGGSGGGGSGGGGSGGGGSQVQLQESGPGLVKPSETLSLTCTVSGIDFNSNYYMCWIRQPPGKGLEWIGCIYVGSHVNTYYANWAKGRVTISVDTSKNQFSLKLSSVTAADTAVYYCATSGSSVLYFKFWGQGTLVTVSS
0.0395 | 0.0395 | 6.52e-05 | 1.65e+06 | Vκ3/VH3 consensus (uncapped), human IL23R specific scFv (scFv, scFv VL-linker-VH, made in E. coli; Vκ framework IV (uncapped, full consensus); also called Vκ3VH3 uncapped) scFv: DIVLTQSPATLSLSPGERATLSCQASENIYSFLAWYQQKPGQAPRLLIYSASKLAAGVPARFSGSGSGTDFTLTISSLEPEDFAVYYCQQTNRYSNPDIYNVFGQGTKVEIKRGGGGSGGGGSGGGGSGGGGSEVQLVESGGGLVQPGGSLRLSCAASGIDFNSNYYMCWVRQAPGKGLEWVSCIYVGSHVNTYYANWAKGRFTISRDNSKNTLYLQMNSLRAEDTAVYYCATSGSSVLYFKFWGQGTLVTVSS
0.239 | 0.239 | 0.000538 | 2.25e+06 | Vκ1/VH5 consensus (uncapped), human IL23R specific scFv (scFv, scFv VL-linker-VH, made in E. coli; Vκ framework IV (uncapped, full consensus); also called Vκ1VH5 uncapped) scFv: DIQMTQSPSSLSASVGDRVTITCQASENIYSFLAWYQQKPGKAPKLLIYSASKLAAGVPSRFSGSGSGTDFTLTISSLQPEDFATYYCQQTNRYSNPDIYNVFGQGTKVEIKRGGGGSGGGGSGGGGSGGGGSEVQLVQSGAEVKKPGESLKISCKGSGIDFNSNYYMCWVRQMPGKGLEWMGCIYVGSHVNTYYANWAKGQVTISADKSISTAYLQWSSLKASDTAMYYCATSGSSVLYFKFWGQGTLVTVSS
0.394 | 0.394 | 0.000563 | 1.43e+06 | Vκ3/VH6 consensus λ-capped, human IL23R specific scFv (scFv, scFv VL-linker-VH, made in E. coli; also called Vκ3VH6 capped) scFv: DIVLTQSPATLSLSPGERATLSCQASENIYSFLAWYQQKPGQAPRLLIYSASKLAAGVPARFSGSGSGTDFTLTISSLEPEDFAVYYCQQTNRYSNPDIYNVFGGGTKLTVLGGGGGSGGGGSGGGGSGGGGSQVQLQQSGPGLVKPSQTLSLTCAISGIDFNSNYYMCWIRQSPGRGLEWLGCIYVGSHVNTYYANWAKGRITINPDTSKNQFSLQLNSVTPEDTAVYYCATSGSSVLYFKFWGQGTLVTVSS
0.222 | 0.222 | 0.000279 | 1.26e+06 | Vκ2/VH1A consensus (uncapped), human IL23R specific scFv (scFv, scFv VL-linker-VH, made in E. coli; Vκ framework IV (uncapped, full consensus); also called Vκ2VH1A uncapped) scFv: DIVMTQSPLSLPVTPGEPASISCQASENIYSFLAWYLQKPGQSPQLLIYSASKLAAGVPDRFSGSGSGTDFTLKISRVEAEDVGVYYCQQTNRYSNPDIYNVFGQGTKVEIKRGGGGSGGGGSGGGGSGGGGSQVQLVQSGAEVKKPGSSVKVSCKASGIDFNSNYYMCWVRQAPGQGLEWMGCIYVGSHVNTYYANWAKGRVTITADESTSTAYMELSSLRSEDTAVYYCATSGSSVLYFKFWGQGTLVTVSS
0.143 | 0.143 | 0.000326 | 2.29e+06 | Vκ2/VH1B consensus λ-capped, human IL23R specific scFv (scFv, scFv VL-linker-VH, made in E. coli; also called Vκ2VH1B capped) scFv: DIVMTQSPLSLPVTPGEPASISCQASENIYSFLAWYLQKPGQSPQLLIYSASKLAAGVPDRFSGSGSGTDFTLKISRVEAEDVGVYYCQQTNRYSNPDIYNVFGGGTKLTVLGGGGGSGGGGSGGGGSGGGGSQVQLVQSGAEVKKPGASVKVSCKASGIDFNSNYYMCWVRQAPGQGLEWMGCIYVGSHVNTYYANWAKGRVTMTRDTSISTAYMELSSLRSEDTAVYYCATSGSSVLYFKFWGQGTLVTVSS
0.251 | 0.251 | 0.000309 | 1.23e+06 | Vκ1/VH6 consensus (uncapped), human IL23R specific scFv (scFv, scFv VL-linker-VH, made in E. coli; Vκ framework IV (uncapped, full consensus); also called Vκ1VH6 uncapped) scFv: DIQMTQSPSSLSASVGDRVTITCQASENIYSFLAWYQQKPGKAPKLLIYSASKLAAGVPSRFSGSGSGTDFTLTISSLQPEDFATYYCQQTNRYSNPDIYNVFGQGTKVEIKRGGGGSGGGGSGGGGSGGGGSQVQLQQSGPGLVKPSQTLSLTCAISGIDFNSNYYMCWIRQSPGRGLEWLGCIYVGSHVNTYYANWAKGRITINPDTSKNQFSLQLNSVTPEDTAVYYCATSGSSVLYFKFWGQGTLVTVSS

From patent US20230242651A1 (published 2023)
